Among the data in PMC10920922 are share of TaPIF4 associated with and protected by the kinase after 3 h heat stress: TaPIF4 protein still detectable on co-transformation in N. benthamiana leaves (23%) less that of the control (12%) and share of TaPIF4 associated with and protected by the kinase after 3 h heat stress: TaPIF4 protein still detectable on co-transformation in N. benthamiana leaves (88%) less that of the control (12%) values, retold here.

For test [1], the target named is TaSG-D1-GFP (wheat (Triticum aestivum)).
Test [2] deals with TaSG-D1^E286K-GFP (Indian dwarf wheat (Triticum sphaerococcum)).

Take TaPIF4-Myc (natural protein): the share of TaPIF4 associated with and protected by the kinase after 3 h heat stress: TaPIF4 protein still detectable on co-transformation in N. benthamiana leaves (23%) less that of the control (12%) in test [1] came out at 11%. Further, the share of TaPIF4 associated with and protected by the kinase after 3 h heat stress: TaPIF4 protein still detectable on co-transformation in N. benthamiana leaves (88%) less that of the control (12%) in test [2] is 76%.
